Assay results reported in IntAct's records for PubMed 21984795.

B1: Biopolymer transport protein ExbD (Escherichia coli (strain K12)), P0ABV2 (parent)
chain: MAMHLNENLDDNGEMHDINVTPFIDVMLVLLIIFMVAAPLATVDVKVNLPASTSTPQPRPEKPVYLSVKADNSMFIGNDPVTDETMITALNALTEGKKDTTIFFRADKTVDYETLMKVMDTLHQAGYLKIGLVGEETAKAK
B2: Biopolymer transport protein ExbD (Escherichia coli (strain K12)), P0ABV2 (parent)
chain: B1 chain
partner: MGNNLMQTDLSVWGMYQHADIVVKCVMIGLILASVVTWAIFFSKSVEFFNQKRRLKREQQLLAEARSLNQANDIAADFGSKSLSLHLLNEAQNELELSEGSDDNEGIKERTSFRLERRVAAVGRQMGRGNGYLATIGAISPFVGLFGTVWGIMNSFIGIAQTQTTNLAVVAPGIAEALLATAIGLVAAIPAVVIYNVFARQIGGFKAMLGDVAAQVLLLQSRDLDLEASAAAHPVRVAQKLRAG

Variants of: B1
Conditions: with tonb_ecoli tonB

**Q.** Which “effect of a mutation on the interaction” value does the source give for MAMHLNENLDDNGEMHDINVTPFIDVMLVLLIIFMVAAPLATVDVKVNLPASTSTPQPRPEKPVYLSVKADNSMFIGNDPVTDETMITALNCLTEGKKDTTIFFRADKTVDYETLMKVMDTLHQAGYLKIGLVGEETAKAK [A92C] here?
**A.** increasing interaction

**Q.** With MAMHLNENLDDNGEMHDINVTPFIDVMLVLLIIFMVAAPLATVDVKVNLPASTSTPQPRPEKPVYLSVKADNSMFIGNDPVTDETMITALNALTECKKDTTIFFRADKTVDYETLMKVMDTLHQAGYLKIGLVGEETAKAK [G96C] as the variant, how does the “effect of a mutation on the interaction” value read?
**A.** increasing interaction

**Q.** How did the “effect of a mutation on the interaction” value turn out when MAMHLNENLDDNGEMHDINVTPFIDVMLVLLIIFMVAAPLATVDVKVNLPASTSTPQPRPEKPVYLSVKADNSMFIGNDPVTDETMITALNALTEGKKDTTCFFRADKTVDYETLMKVMDTLHQAGYLKIGLVGEETAKAK [I102C] was run?
**A.** increasing interaction

**Q.** For MAMHLNENLDDNGEMHDINVTPFIDVMLVLLIIFMVAAPLATVDVKVNLPASTSTPQPRPEKPVYLSVKADNSMFIGNDPVTDETMITALNALTEGKKDTTIFFRACKTVDYETLMKVMDTLHQAGYLKIGLVGEETAKAK [D107C], which “effect of a mutation on the interaction” value is on record?
**A.** increasing interaction

**Q.** How did the “effect of a mutation on the interaction” value turn out when MAMHLNENLDDNGEMHDINVTPFIDVMLVLLIIFMVAAPLATVDVKVNLPASTSTPQPRPEKPVYLSVKADNSMFIGNDPVTDETMITALNALTEGKKDTTIFFRADCTVDYETLMKVMDTLHQAGYLKIGLVGEETAKAK [K108C] was run?
**A.** increasing interaction

**Q.** For MAMHLNENLDDNGEMHDINVTPFIDVMLVLLIIFMVAAPLATVDVKVNLPASTSTPQPRPEKPVYLSVKADNSMFIGNDPVTDETMITALNALTEGKKDTTIFFRADKCVDYETLMKVMDTLHQAGYLKIGLVGEETAKAK [T109C], which “effect of a mutation on the interaction” value is on record?
**A.** increasing interaction

**Q.** Which “effect of a mutation on the interaction” value does the source give for MAMHLNENLDDNGEMHDINVTPFIDVMLVLLIIFMVAAPLATVDVKVNLPASTSTPQPRPEKPVYLSVKADNSMFIGNDPVTDETMITALNALTEGKKDTTIFFRADKTCDYETLMKVMDTLHQAGYLKIGLVGEETAKAK [V110C] here?
**A.** increasing interaction

**Q.** How did the “effect of a mutation on the interaction” value turn out when MAMHLNENLDDNGEMHDINVTPFIDVMLVLLIIFMVAAPLATVDVKVNLPASTSTPQPRPEKPVYLSVKADNSMFIGNDPVTDETMITALNALTEGKKDTTIFFRADKTVCYETLMKVMDTLHQAGYLKIGLVGEETAKAK [D111C] was run?
**A.** increasing interaction

**Q.** Which “effect of a mutation on the interaction” value does the source give for MAMHLNENLDDNGEMHDINVTPFIDVMLVLLIIFMVAAPLATVDVKVNLPASTSTPQPRPEKPVYLSVKADNSMFIGNDPVTDETMITALNALTEGKKDTTIFFRADKTVDCETLMKVMDTLHQAGYLKIGLVGEETAKAK [Y112C] here?
**A.** increasing interaction

**Q.** Which “effect of a mutation on the interaction” value does the source give for MAMHLNENLDDNGEMHDINVTPFIDVMLVLLIIFMVAAPLATVDVKVNLPASTSTPQPRPEKPVYLSVKADNSMFIGNDPVTDETMITALNALTEGKKDTTIFFRADKTVDYCTLMKVMDTLHQAGYLKIGLVGEETAKAK [E113C] here?
**A.** increasing interaction

**Q.** MAMHLNENLDDNGEMHDINVTPFIDVMLVLLIIFMVAAPLATVDVKVNLPASTSTPQPRPEKPVYLSVKADNSMFIGNDPVTDETMITALNALTEGKKDTTIFFRADKTVDYETLCKVMDTLHQAGYLKIGLVGEETAKAK [M116C] was tested. Which “effect of a mutation on the interaction” value did it give?
**A.** increasing interaction

**Q.** MAMHLNENLDDNGEMHDINVTPFIDVMLVLLIIFMVAAPLATVDVKVNLPASTSTPQPRPEKPVYLSVKADNSMFIGNDPVTDETMITALNALTEGKKDTTIFFRADKTVDYETLMKVMCTLHQAGYLKIGLVGEETAKAK [D120C] was tested. Which “effect of a mutation on the interaction” value did it give?
**A.** increasing interaction

Variants of: B2
Conditions: with exbb_ecoli exbB

**Q.** MAMHLNENLDDNGEMHDINVTPFINVMLVLLIIFMVAAPLATVDVKVNLPASTSTPQPRPEKPVYLSVKADNSMFIGNDPVTDETMITALNALTEGKKDTTIFFRADKTVDYETLMKVMDTLHQAGYLKIGLVGEETAKAK [D25N] was tested. Which “effect of a mutation on the interaction” value did it give?
**A.** disrupting interaction

**Q.** For MAMHLNENLDDNGEMHDINVTPFIDVMLVLLIIFMVAAPLATVDVKVNLPASTSTPQPRPEKPVYLSVKADNSMFIGNDPVTDETMITALNALTEGKKDTTIFFRADCTVDYETLMKVMDTLHQAGYLKIGLVGEETAKAK [K108C], which “effect of a mutation on the interaction” value is on record?
**A.** increasing interaction

**Q.** For MAMHLNENLDDNGEMHDINVTPFIDVMLVLLIIFMVAAPLATVDVKVNLPASTSTPQPRPEKPVYLSVKADNSMFIGNDPVTDETMITALNALTEGKKDTTIFFRADKTVDCETLMKVMDTLHQAGYLKIGLVGEETAKAK [Y112C], which “effect of a mutation on the interaction” value is on record?
**A.** increasing interaction

**Q.** With MAMHLNENLDDNGEMHDINVTPFIDVMLVLLIIFMVAAPLATVDVKVNLPASTSTPQPRPEKPVYLSVKADNSMFIGNDPVTDETMITALNALTEGKKDTTIFFRADKTVDYCTLMKVMDTLHQAGYLKIGLVGEETAKAK [E113C] as the variant, how does the “effect of a mutation on the interaction” value read?
**A.** increasing interaction

**Q.** Which “effect of a mutation on the interaction” value does the source give for MAMHLNENLDDNGEMHDINVTPFIDVMLVLLIIFMVAAPLATVDVKVNLPASTSTPQPRPEKPVYLSVKADNSMFIGNDPVTDETMITALNALTEGKKDTTIFFRADKTVDYETLCKVMDTLHQAGYLKIGLVGEETAKAK [M116C] here?
**A.** increasing interaction
